T1: His-RLIP76 GAP-GBD didomain (residues 184-446) (human, UniProt Q15311 184-446)
T1 construct: Construct details are in Rajasekar et al., 2012; also called RLIP76 didomain; RhoGAP-GBD didomain; source: expressed and purified as described previously (Rajasekar et al., 2012)
T1 sequence (looked up): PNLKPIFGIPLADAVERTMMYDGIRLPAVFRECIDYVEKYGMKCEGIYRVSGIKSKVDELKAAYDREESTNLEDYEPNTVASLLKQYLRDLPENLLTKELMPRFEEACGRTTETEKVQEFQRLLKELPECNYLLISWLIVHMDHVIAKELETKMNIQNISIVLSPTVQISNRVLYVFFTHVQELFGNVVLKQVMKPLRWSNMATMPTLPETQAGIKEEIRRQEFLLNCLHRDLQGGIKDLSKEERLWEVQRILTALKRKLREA

B1: RalB (natural protein, UniProt P11234 1-206, looked up)
chain: MAANKSKGQSSLALHKVIMVGSGGVGKSALTLQFMYDEFVEDYEPTKADSYRKKVVLDGEEVQIDILDTAGQEDYAAIRDNYFRSGEGFLLVFSITEHESFTATAEFREQILRVKAEEDKIPLLVVGNKSDLEERRQVPVEEARSKAEEWGVQYVETSAKTRANVDKVFFDLMREIRTKKMSENKDKNGKKSSKNKKSFKERCCLL
notes: RalB small GTPase
B2: His-RLIP76 GAP insert (RLIP76 GAP domain with the F-G loop of p50 RhoGAP) (domain or fragment)
chain: PNLKPIFGIPLADAVERTMMYDGIRLPAVFRECIDYVEKYGMKCEGIYRVSGIKSKVDELKAAYDREESTNLEDYEPNTVASLLKQYLRDLPENLLTKELMPRFEEACGRTTETEKVQEFQRLLKELPECNYLLISWLIVHMDHVIAKELETKMNIQNISIVLSPTVLWAKDAAITLKAINPINRVLYVFFTHVQELFGNVVLKQVMKPL
notes: Made from the pET16b RLIP GAP domain construct; also called GAP insert mutant; RLIP76 GAP insert domain
B3: Q61L Cdc42·[3H]GTP (natural protein)
chain: not shown
notes: Cdc42, GTPase-deficient mutant Q61L, loaded with [3H]GTP; Q61L is stated for the SPA experiments in general; also called [3H]GTP·Cdc42

Experiments:
[1] = molecular target: T1, His-RLIP76 GAP-GBD didomain (residues …); assay: not stated; data not shown
Q61L Rac1·[3H]GTP = Q61L Rac1·[3H]GTP (UniProt P63000 1-192, Q61L); assay: scintillation proximity assay (competition); competitor titrated into 30 nM [3H]GTP·Rac1 or [3H]GTP·Cdc42 and 30 nM GST-p50 RhoGAP immobilised on fluoromicrospheres via an anti-GST antibody; partial competition model for RLIP76 GAP and didomain, full competition for GAP insert and free p50 RhoGAP; details: both partners purified
GST-PAK1 = molecular target: T2, GST-PAK1 (UniProt Q13153 1-545); assay: scintillation proximity assay (direct); GST-PAK1 on SPA beads as control binding partner; concentration of Q61L Rac1/Cdc42·[3H]GTP varied; apparent Kd; details: both partners purified
T2 construct: PAK1, positive control effector of Cdc42 and Rac1

[2] = molecular target: B2; assay: scintillation proximity assay (competition); competitor titrated into 30 nM [3H]GTP·Rac1 or [3H]GTP·Cdc42 and 30 nM GST-p50 RhoGAP immobilised on fluoromicrospheres via an anti-GST antibody; partial competition model for RLIP76 GAP and didomain, full competition for GAP insert and free p50 RhoGAP; details: both partners purified

Binder: B1
Kd [1]: ~200 nM

Binder: B2
Kd (Q61L Rac1·[3H]GTP): 1440 nM

Binder: B3
Kd (GST-PAK1): 32 nM | Kd [2]: 1270 nM
